Laboratory results: the domain aggregation screens of Martell et al. (2025)

Assay: soluble fraction after stress (log2 fold change); higher = more stays soluble; pooled small domains, quantitative proteomics
Conditions: stress: 75 degC
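Further: 20 min heating vs room temperature control held 20 min.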

Sequence	soluble fraction (log2)
HMGDLVKGKVVGYDPDNVIVDIGAKTNALVPNREAVVEAGDDIKETLKKGNEYEFLIIRDEDEEGEFL	0.24
HMGDPEYFKKQLGDFMDRFNITSEDIKNLSIAGAINRMMNNAEGEDKTVLSKLLETVNKSGVGNLPAKTI	-0.0106
HMGDPVRVDKFLHDMNVGTRSQIRKLIKEKAVFVNDVVAKSGRVKVDPVVDQVRLGEQVITYQ	-0.245
HMGDPYAILGLLPGASMEDVRHAWRRQAAENHPDRMLQRGAPPEFVEIAREKTAAINAAYARIREELSI	-0.433
HMGDTIGEQKAKEIALEHAGLKSSDVTFIRAVLEYDDRNWEYDVEFYDADTYTEYDYEIDAHTGKILSFDH	0.351
HMGDTPVDFSEFIRWVDTGVVDRVELTGNEIVGTSSSGERFSTYAPPQYEGLGNKLIERDIVVVATAA	-0.0455
HMGDTVSGTMLNLKPGVRVVHQIFGPGRVEETTGASLAEFRVTVRFEQKGLKTLLLQYAALQVINSEN	-1.73
HMGDVKLNAIYNFLKEFSALNGFPPSVREIGAKFGIKSTSTVHYYLEKLKQSGVIQQEENKKRAVVIN	-1.32
HMGDWEDFWEKEARRRKLSLDYQVVRSLSRWSREYDWGEEDVEQFLSQFPEGETVKMEDVELYFE	-1.18
HMGDYDHYVVKVEDTLLNWLVTNVTTMSRNKLKDILAGQGIKVNGKITTKYDYPLTPGMKIAISKTKR	-1.41
HMGEAIPVPDIRHKSQADAERLLQDQGLAMMVTDTGYVKTLPANYILEQIPVAGEKVKSGHVVYVIINSG	-0.103
HMGEGIRIDSTAVVQVGEKMYAYLGGDGFSKEFWTNLPASGELAVTLKFEPIPMDAESLDFYEMPA	0.307
HMGEILYSGVLKGGDGPEATKLALEKFLGEANTQVAGRIGVQPETQVIWLSREAVDSAASTLSQHKGNMYV	-0.247
HMGELDFYEEMRDDYLTGKIWNVGEIVEAKGMIGEIVRKGTNYISFVTDDNKVHKAWLHEIKL	-0.641
HMGELRAPLPGVIVSIPVKEGDEVKAGQAILIIEAMKMESEISSPIDAKVAKIVVKERVLVQEGDILIILE	-1.33
HMGEMTDFETLRDMYLTGQIWNIDDLIEANGVEGRIVRRGTNYIAFNDRDGKVHKAWLHEVTINE	-0.434
HMGENTIFSGVLGEGRLDSALAHALPQFSRARIQGLIAEDAVLIAGKATNDAASKKFAGQSFELSVPAPRP	0.119
HMGEPQAWNELIGNLLRQWEARQTGWTPARKREALDRVLGAADPAALYTRLQGLLKSWTQAMTDADA	-1.73
HMGEQETILKGDVNRDGVVDVNDVTHLQIHISNDDKNPLIDVTNKAWFDAADMYGDGKLDILDATALQIYI	0.196
HMGERVDGVVKFFNGQKGFGFIQREDGGPDAFVHISAVERAGMAGLDEGQRVSFELELDRRGKQAAINLTP	0.108
HMGESYGPVRRGETLWSIAEKVKPAGVSTQKELAAIYAANPQAFIRGDINLLKAGAELRLPSPEAL	-0.0179
HMGESYQIKDGELLVDIAQRVKPAGMTLRQTINALVAANPRAFRNGNPDLMYRGATLTIPDGDTLRRLAH	-0.0841
HMGEVQALIPGLVSKLFVVEGESVKIGQKLIILEAMKMENEIASPINGTIKKIYIKSGDKIDKGSIIMEIT	-3.41
HMGEVVSAPMPGTILSIKVSQGQTVKRGQVLLILEAMKMENEIVAPRDGVVVQISTTQGASVETGAPLVVL	-1.1
HMGEVYPSDIVEKMKQANLHILEGTLYPLLTRLKNAGLLNYRWVESVTGPPRKYFVMTEEGKAAF	0.13

Sequence	soluble fraction (log2)
HMGEWHQMLRSWGETELKNGRQNILDEAVPAFERAMIETALAHTSGRKKDAALLLGWGRNTLTRKLQEHSI	-0.169
HMGEYGVLWYLLTKKEAVSAGELKEKLHVVPGRMTDILTALEKKGLIIRQKNKTDKRVVDVVLTKEGEKEA	-0.731
HMGFAEFWLAYPKKVGKGEAERKWKTLKPDAGAVLSAVKRQSASEQWRKDGGRYIPNPATWLHQRRWE	0.0452
HMGFALLIAIERTGNTTYFVKLTLIKKGSDSDVLKDSFSVSQGDLVGTATYDSVIANRIREKTAAMWQKAT	-2.76
HMGFDTSMNKYTIDDLLKLLELGSNPSQAEIVNKITNFNTIFVDNSGVIQFLNNIQDKLLDNFK	-0.734
HMGFDTVVEKVLGLITSRPMTSRDIQMTLGRSREHTSRLMNRLYKEGLVDRNTSSKPFSYIITEKGREKI	-0.429
HMGFPAPFDGKAVAELRRRLGLTRRGLAEELSVSPSTVDKWEQGDVALRSPALTILKILWHQGLKALPP	-1.78
HMGFSDDEHNALADADLKKALEVTTNKSETQYNIAKLIYSYIISLGDKKPYGDWSYDKALSIIHDA	-0.0187
HMGGAVQIAEQIAARIKDGALRPGELLPPVRQLAAELEVNPNTVASAYARLRDAGLVATRGRAGTVVLEPP	-0.421
HMGGAYATVKLSSSSSQLNVRASASTASRVVARLSHGFRVEVLGVSGDWVKIRALGVEGYVARAYLALEGE	-3.07
HMGGEAEVLQSIDEGREVEVRSVAADGSAEVIYRGARWRARAAVGSLAAGRWTIGRVDGTELVLEK	-0.0609
HMGGEEKALLFGDVDIREAGEITQRLEQAEIPYELRGDGSSIFVPRSRVMEARMMISADGLL	-0.0934
HMGGEKLPAPVAGTLLRYSVAEGARVSEGQTVIILESMKMELEINTPKAGVIHFLAAVGAQVAEGDTLAEI	-3.46
HMGGGTPEERLATLAAIAERQEMLLERLGPNNPLVSLGQYSRTLSRMVQLAGFKDASQYFNELPLDFQMPE	-0.408
HMGGHLAYGFSRRFGLLIDEQQGEPVIIARPDYSPVHYAEARRIVGQPAALRVVDEQAFNQLLQSQQESGA	-0.512
HMGGLENNLKQARNRVGLTQSELARQAGISRQAYSSLESGAANPSTEVALRLAQALSERVESLFYLPE	-0.117
HMGGNVYAYRLTASVKSGEQIPANKIEKVKMLSSDLPTNYVPDTVNVTAYKSKLDLQAGTILSTSLLYEN	-0.591
HMGGPTARQMEVLSLIAQGLPNKRIADELGIAERTVKLHITALLDSLGARNRTHLLVVARERGM	-2.16
HMGGQKTREAIFDLIMTNSKITSAQIAEILGIHRSGVARHLKKLQEEGLIKREGPDNGGQWIVIK	-0.473
HMGGQYQVRPGETLNQIAARVRPSNMSLSETQKAIIQANPDIFKNGNPNLIFAGDILRIPTGNQI	0.466
HMGGTTLIAKQATVTGDIQFSSNLDIEGRVVGAISVEPGKEAMLHVVEGGSVEGEIRVPSAVINGKVTGDI	0.0791
HMGGVEWLTHPIGPRDSLQVLARAGLEARPTSDGDYEIYGQERWPQRDQARLMGWLRRFGQWVWQALYDK	-0.569
HMGHEALSSKLDEIQGVGKEKRSLLLDHFKTFERIKNASMEELEAVPSLGKNTAKAVFRFFHS	-0.0805
HMGHLTWTVTGIGHERRARTVAEQMSSVFGVLEARASSAGTVYLEFEREKIDEGGLEASLKRMGVTRVV	-2.02
HMGIAFDYDAGRFDQVPPNLVEKWQQAYPAVDVLSELRRMEAWASANPVNRKSNWQRFIVNWLTRAQDRAG	-0.859
